This is an account of results in paper PMC6715661, “Cardiac MLC2 kinase is localized to the Z-disc and interacts with α-actinin2” (Scientific Reports, 2019).

The target of this experiment is T1, Myc-α-actinin2, full length, expressed in HEK293 cells (mouse, UniProt Q9JI91 1-894).
T1 construct: α-actinin2, cloned by RT-PCR from RNA of neonatal mouse hearts into pAdlox (pAdlox-Myc-α-actinin2), full length; also called Myc-tagged full-length α-actinin2; source: HEK293 cells, exogenous expression, in lysate (co-IP); purified from HEK293 cells (BLI)
T1 sequence (Q9JI91 whole entry): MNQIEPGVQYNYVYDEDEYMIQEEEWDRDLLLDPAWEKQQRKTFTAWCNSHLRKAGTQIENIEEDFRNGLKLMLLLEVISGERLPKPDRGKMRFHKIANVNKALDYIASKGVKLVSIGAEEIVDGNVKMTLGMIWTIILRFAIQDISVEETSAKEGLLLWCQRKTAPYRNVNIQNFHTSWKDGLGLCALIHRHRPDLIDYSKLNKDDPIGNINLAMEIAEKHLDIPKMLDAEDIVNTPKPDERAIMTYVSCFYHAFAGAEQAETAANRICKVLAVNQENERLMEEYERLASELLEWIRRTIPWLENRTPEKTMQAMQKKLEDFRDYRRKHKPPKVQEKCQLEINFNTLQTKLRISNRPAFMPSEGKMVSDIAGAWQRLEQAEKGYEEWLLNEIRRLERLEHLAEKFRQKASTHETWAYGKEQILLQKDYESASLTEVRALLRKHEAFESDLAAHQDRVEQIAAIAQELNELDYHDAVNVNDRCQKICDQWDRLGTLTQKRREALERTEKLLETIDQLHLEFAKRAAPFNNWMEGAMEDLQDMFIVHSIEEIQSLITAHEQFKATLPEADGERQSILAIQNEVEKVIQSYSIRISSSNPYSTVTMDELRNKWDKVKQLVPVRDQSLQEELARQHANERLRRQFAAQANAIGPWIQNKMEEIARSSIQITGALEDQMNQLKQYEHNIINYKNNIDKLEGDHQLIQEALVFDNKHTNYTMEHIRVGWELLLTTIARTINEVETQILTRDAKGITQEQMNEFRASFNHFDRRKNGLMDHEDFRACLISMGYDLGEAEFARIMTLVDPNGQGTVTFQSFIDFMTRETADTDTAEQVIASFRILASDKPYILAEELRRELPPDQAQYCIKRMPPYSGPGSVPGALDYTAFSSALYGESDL
In words: BLI; Octet RED384, 30 °C; biotinylated anti-Myc antibody on streptavidin biosensors captures Myc-α-actinin2 (10 μg/ml, 100 nM); HA-cMLCK in solution, two-fold dilutions from 14 to 1.75 μg/ml; 20 mM Tris, 150 mM NaCl, 0.002% Tween, pH 7.3; global fit, 2:1 heterogeneous ligand analysis. To be noted: both partners purified. (In general: BLI is a label-free optical method that tracks binding on a fibre tip over time.)

B1: HA-cMLCK, full length, expressed in HEK293 cells (enzyme, mouse, UniProt Q3UIZ8 1-795, looked up)
chain: MSGVSEEDPEGLAPQGLPALGGACLATMDKKLNVLTEKVDRLLHFQEDVTEKLQCVCQGMDHLEQDLHRLEASRELSLAGSGSTPPTTAQAAWPEVLELVRAVRQEGAQHGARLEALFKMVVAVDRAITLVGSTFQNSKVADFIMQGTVPGRKGSLADGPEENKEQAEVAGVKPNHVLTTGGVQADASRTLWEESQKEDIPVRTVEGLPLIINTSLKGADLTQAGASLRQGVEVLGPGQVPLPTEAESRLPETASENTGATLELSVAIDRISEVLTSLKMSQGGGQETSSSKPDCWLSEEAMRLSSGPLPQPLGPLTPDSDIHSGDALPRIPINMQEMATPGELLETQSGSPIGSAEAPGLGTVLEDQIPKGARPFPPLPKRSSNNGGMSAEEEIGSGAEPMRGPSLATRDWRDETVGTTDLQQGIDPGAVSPEPGKDHAAQGPGRTEAGRLSSAAEAAIVVLDDSAAPPAPFEHRVVSIKDTLISAGYTVSQHEVLGGGRFGQVHRCTERSTGLALAAKIIKVKNVKDREDVKNEVNIMNQLSHVNLIQLYDAFESKSSFTLIMEYVDGGELFDRITDEKYHLTELDVVLFTRQICEGVHYLHQHYILHLDLKPENILCVSQTGHQIKIIDFGLARRYKPREKLKVNFGTPEFLAPEVVNYEFVSFPTDMWSVGVITYMLLSGLSPFLGETDAETMNFIVNCSWDFDADTFKGLSEEAKDFVSRLLVKEKSCRMSATQCLKHEWLSHLPAKASGSNVRLRSQQLLQKYMAQSKWKKHFHVVTAVNRLRKFPTCP
notes: cardiac myosin light chain kinase (cMLCK), mouse, full length (residues to 795 by the printed deletion constructs); also called HA-MLCK; HA-full-length cMLCK; source: HEK293 cells, exogenous expression, in lysate (co-IP); purified (BLI)
Usually Kd stands for a measure of binding affinity in units of concentration. The low end stands for tighter binding, the high end for weaker binding. As a reminder, the koff is a measure of how fast the partners let go of each other. A lower koff goes with slow dissociation. What is called kon is a measure of how fast the partners come together. The molecule B1 came in with a dissociation constant Kd of 13.4 nM, a dissociation rate constant (koff) of 0.000341 s⁻¹ and an on-rate (kon) of 25800 M⁻¹ s⁻¹.
